One assay has as its system Rac1. In words: Rac1 activity assay (pull-down). The class given is cell-based, human. As for the experimental part: These were performed and quantified using the commercially available kit according to the manufacturer's instruction (Cytoskeleton, Denver, Colo.). After signal starvation, HMVEC-L were treated with vehicle, Ang-1 (100 ng/ml) with or without inhibitor for the indicated time and harvested with lysis buffer. Following a brief centrifugation to remove cell debris, lysates from the cells containing equivalent protein concentrations were incubated for 60 minutes with 40 μL slurry of a GST-fusion protein composed of Rac1 or RhoA effector proteins coupled to agarose beads. After washing with lysis buffer, samples were subjected to immunoblotting and detected with anti-Rac1 or anti-RhoA antibody (Santa Cruz Biotechnology, Santa Cruz, Calif.). Whole cell lysates were also run to determine the total amount of Rac1 or RhoA protein.

The subject of the next assay is HMVEC-L monolayer. Kind of assay: Measurement of endothelial permeability in vitro (FITC-albumin). The class given is cell-based, human. As for the experimental part:
Coster Transwell membranes (Corning Inc. Corning, N.Y.) were coated with 0.5% Gelatin and cells were grown until confluence. Vehicle or proteins with FITC-albumin (1 mg/ml) was added to the luminal chamber for 4 hours, and samples were taken from both the luminal and abluminal chamber for fluorometry analysis. The readings were converted with the use of a standard curve to albumin concentration. These concentrations were then used in the following equation to determine the permeability coefficient of albumin (Pa).
[A] is abluminal concentration; t is time in seconds; A is area of membrane in cm^2; V is volume of abluminal chamber; and [L] is luminal concentration. siRNA Transfection: HMVEC-Ls were seeded and control small interfering RNA (siRNA) (Ambion, Ausin, Tex.) or siRNA directed to human p190RhoGAP (5′-[…]-3′ SEQ ID NO: 5 and 5′-[…]-3′ SEQ ID NO: 6) was transfected using SilentFect Lipid reagent (Bio-Rad) according to the manufacturer's instructions. The cells were used for each experiment 3 days after transfection. Almost 90-100% cells were transfected with siRNA (checked by fluorescent labeled siRNA). Down-regulation of p190RhoGAP was verified by immunoblotting. We tested two different siRNA for the experiment and obtained similar results.

Assay [1] relates to mice (female FVB strain), lung. In words: In vivo permeability assay (Evans blue, LPS). Also noted: species or system mouse. Conditions: Ang-1 10 mcg ip x 2 doses. Here is the method:
Mice (8-12 weeks old, female FVB strain) were pretreated with Ang-1 (10 mcg, ip). 8 hours after the first Ang-1 injection, the second dose of Ang-1 (10 mcg, ip) and LPS (100 μg, ip) were co-injected. Lung permeability was assessed 16 hours after the second injection. Mice were anesthetized with Avertin (2,2,2-Tribromoethanol) and 2% Evans blue (50 μl) was then injected into the retro-orbital sinus. Ten minutes after Evans blue injection, mice were sacrificed and perfused with PBS with 2 mM EDTA for 10 minutes through a cannula placed in the right ventricle. […] Organs were then harvested and homogenized in 1.5 nil formamide. Evans blue was extracted by incubating the samples at 70° C. for 24 hours, and the concentration of Evans blue was estimated by dual-wavelength spectrophotometer (620 and 740 nm). The following formula was used to correct optical densities (E) for contamination with heme pigments: E620 (corrected)=E620−(1.426XE740+0.030).

A further assay relates to Akt. Kind of assay: Akt phosphorylation (Western blot) in HMVEC-L. The class given is cell-based, human. Conditions: Ang-1 100 ng/ml, 15 minutes. Here is the method:
(§1) HMVEC-L were washed with ice-cold PBS three times and lysed with ice-cold RIPA buffer (50 mM Tris-HCl pH7.4, 150 mM NaCl, 1% NP-40, 0.5% Sodium Deoxycholate, 0.1% SDS and 1 mM EDTA) supplemented with protease inhibitors (Roche Diagnostics, Indianapolis, Ind.), 1 mM NaF and 1 mM Na3VO4. Lysates were sonicated and centrifuged at 10,000 rpm for 10 minutes at 4° C., and supernatants were collected. Protein concentrations were determined by BCA protein assay with bovine serum albumin as standard (Pierce, Rockford, Ill.). Lysates were electrophoresed using NuPAGE system (Invitrogen Life Technologies, Franklin Lakes, N.J.) and transferred to PVDF membrane and immunoblotted with specific primary antibodies. Binding of primary antibodies was detected using horseradish peroxidase-conjugated secondary antibodies (Amersham Bioscience, Piscataway, N.J.) and SuperSignal WestDura (Pierce) as a chemiluminescence substrate. Primary antibodies were obtained from these suppliers: anti-phospho-Akt Ab (Ser 473), anti-Akt Ab and anti-phospho-myosin light chain 2 (Ser19) Ab were from Cell Signaling Technology; anti-GAPDH Ab was from Chemicon International (Temecula, Calif.).
On the technique in general: Immunoblotting shows a protein as a band on a membrane.

Assay [2] concerns MLC phosphorylation (MLC-P). In words: MLC-P immunoblot in HMVEC-L. The class given is cell-based, human. Conditions: Ang-1, HMVEC-L. As for the experimental part: as §1

B1: Ang-1: Human recombinant angiopoietin-1 purchased from R&D systems; Tie-2 agonist, endogenous Ang-2 antagonist (protein, listed as Homo sapiens)
chain: MTVFLSFAFLAAILTHIGCSNQRRSPENSGRRYNRIQHGQCAYTFILPEHDGNCRESTTDQYNTNALQRDAPHVEPDFSSQKLQHLEHVMENYTQWLQKLENYIVENMKSEMAQIQQNAVQNHTATMLEIGTSLLSQTAEQTRKLTDVETQVLNQTSRLEIQLLENSLSTYKLEKQLLQQTNEILKIHEKNSLLEHKILEMEGKHKEELDTLKEEKENLQGLVTRQTYIIQELEKQLNRATTNNSVLQKQQLELMDTVHNLVNLCTKEGVLLKGGKREEEKPFRDCADVYQAGFNKSGIYTIYINNMPEPKKVFCNMDVNGGGWTVIQHREDGSLDFQRGWKEYKMGFGNPSGEYWLGNEFIFAITSQRQYMLRIELMDWEGNRAYSQYDRFHIGNEKQNYRLYLKGHTGTAGKQSSLILHGADFSTKDADNDNCMCKCALMLTGGWWFDACGPSNLNGMFYTAGQNHGKLNGIKWHYFKGPSYSLRSTTMMIRPLDF
Turning to B1, the Rac1 activity result in the assay with Rac1 (HMVEC-L treated with Ang-1) is given as “increased within 15 minutes”. Besides, the “effect on endotoxin-induced change of Rac1 activity” value with Rac1 (co-incubation with Ang-1) is given as “reversed”. The basal monolayer permeability result in the assay on HMVEC-L monolayer (Ang-1 100 ng/ml, 4 hours) is recorded as “somewhat decreased”. Moreover, the “effect on endotoxin-induced permeability” value in the assay with HMVEC-L monolayer (LPS with Ang-1) is “completely reversed”. Moreover, the “effect on endotoxin-increased lung permeability” value in assay [1] is reported as “blocked”. Moreover, the Akt phosphorylation result with Akt is listed as “induces Akt phosphorylation”. In addition, the “time of peak MLC phosphorylation (MLC-P) after stimulation” value in assay [2] is 0.5 to 1.0 h.

Values taken from US20130252821A1, “METHODS AND COMPOSITIONS FOR THE TREATMENT AND DIAGNOSIS OF DISEASES CHARACTERIZED BY VASCULAR LEAK, HYPOTENSION, OR A PROCOAGULANT STATE” (Beth Israel Deaconess Medical Center, Inc., priority 2005, published 2013).
